For one assay, the target named is T1, TR1Fc (human, UniProt O00300 22-401, limits assumed).
T1 construct: also called TR1 Fc fusion protein; TR1 (osteoprotegerin, OPG) fused to hinge-CH2-CH3 of human IgG1
T1 sequence: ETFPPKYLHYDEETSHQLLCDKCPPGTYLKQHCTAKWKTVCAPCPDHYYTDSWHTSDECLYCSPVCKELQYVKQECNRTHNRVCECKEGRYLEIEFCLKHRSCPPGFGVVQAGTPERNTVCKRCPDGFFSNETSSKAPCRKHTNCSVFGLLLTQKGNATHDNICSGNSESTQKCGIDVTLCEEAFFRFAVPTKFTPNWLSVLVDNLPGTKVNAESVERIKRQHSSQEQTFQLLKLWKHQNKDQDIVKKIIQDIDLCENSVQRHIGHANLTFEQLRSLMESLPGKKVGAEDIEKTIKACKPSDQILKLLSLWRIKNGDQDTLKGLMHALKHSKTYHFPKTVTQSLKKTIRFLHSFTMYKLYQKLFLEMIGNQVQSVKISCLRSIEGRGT
The assay is described as follows: SPR (BIAcore 2000), Fc fusion captured on immobilized protein A, ligand injected. On the procedure:
(§1) Surface plasmon resonance. Protein A was immobilized on to a research grade carboxymethyldextran chip (CM5) using amin coupling procedures described previously (4). Flow cell 1 was activated with NHS/EDC for 5 min. Protein A was injected a a concentration of 1 ug/ml in NaOAc buffer (10 mM, pH 5.0) until 1000RUs of protein were coupled. Remaining activated groups were blocked with a 7 min injection of 1M ethanolamine. A control surface was created by repeating the coupling procedure in a flow cell2 without incorporating protein A. In a BIAcore 2000 biosensor (BIAcore Inc. Uppsala, Sweden) TR1Fc or TR2Fc were then injected at a flow rate of 100 ul/min followed by injection of TL2 or TL4, and the binding to receptor monitored by chances in surface plasmon resonance relative to the control chip. In these experiments, TR1Fc bound to TL2 but not TL4 and TR2Fc bound to TL4 but not TL2.
A general note: SPR reads the build-up and loss of mass on a sensor chip optically.

The target of the next assay is T2, sTL2 (Homo sapiens (Human), UniProt P50591 97-281).
T2 construct: also called soluble TL2; TRAIL
T2 sequence (P50591 97-281): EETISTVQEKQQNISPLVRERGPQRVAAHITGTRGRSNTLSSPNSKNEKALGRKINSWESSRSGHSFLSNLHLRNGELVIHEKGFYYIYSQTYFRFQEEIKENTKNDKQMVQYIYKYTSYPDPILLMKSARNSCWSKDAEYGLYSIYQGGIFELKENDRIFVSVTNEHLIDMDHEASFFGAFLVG
The assay is described as above. The procedure:
as §1

The values that follow come from patent publication US20020115110A1 (GlaxoSmithKline, published 2002).

B1: sTL4 (ligand, not shown: small tags and cut ends)
chain: HHHHHHSDDDDKQERRSHEVNPAAHLTGANSSLTGSGGPLLWETQLGLAFLRGLSYHDGALVVTKAGYYYIYSKVQLGGVGCPLGLASTITHGLYKRTPRYPEELELLVSQQSPCGRATSSSRVWWDSSFLGGVVHLEAGEKVVVRVLDERLVRLRDGTRSYFGAFMV
notes: also called soluble TL4
As for B1, the binding result with TR1Fc is reported as “no binding”.

B2: TR2Fc (Fc fusion, not shown: a dimerising Fc or GST)
chain: LPFCKEDEYPVGSECCPKCSPGYRVKEACGELTGTVCEPCPPGTYIAHLNGLSKCLQCQMCDPAMGLRASRNCSRTENAVCGCSPGHFCIVQDGDHCAACRAYATSSPGQRVQKGGTESQDTLCQNCPPGTFSPNGTLEECQHQTKCSWLVTKARSIEGRGT
notes: Secreted from mammalian cells as a dimer and purified on protein A. Residues 1-192 include the putative leader peptide, which is removed on secretion; also called TR2 (HVEM) extracellular domain fused to hinge-CH2-CH3 of human IgG1; product of plasmid TR2Fclink
Take B2: the binding result with sTL2 is “no binding”.
